The record followed here is PMC4856149.

Experiment [1] deals with recombinant GST-Arc (UniProt Q63053). Description: Scatchard analysis.
The target is the same in experiment [2]. Description: Scatchard analysis. This is another data set of the same source.

Where two headings read alike, the source gives them in different places.

Sequence of UniProt Q63053 (Q63053 whole entry): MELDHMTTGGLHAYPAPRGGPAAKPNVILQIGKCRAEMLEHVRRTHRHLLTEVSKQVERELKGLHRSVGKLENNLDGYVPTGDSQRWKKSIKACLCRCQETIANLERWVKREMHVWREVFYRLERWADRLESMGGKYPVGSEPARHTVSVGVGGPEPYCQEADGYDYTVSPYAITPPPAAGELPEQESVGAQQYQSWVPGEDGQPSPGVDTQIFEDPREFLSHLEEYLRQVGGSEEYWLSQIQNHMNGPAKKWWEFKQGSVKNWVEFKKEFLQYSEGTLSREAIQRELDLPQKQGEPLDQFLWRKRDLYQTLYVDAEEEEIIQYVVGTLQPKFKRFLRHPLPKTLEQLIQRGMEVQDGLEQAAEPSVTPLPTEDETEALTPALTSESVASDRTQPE

Turning to “recombinant CaMKIIα (from UniProt P11275 1-478) (enzyme)”, the Kd in experiment [1] stood at 10 µM; in experiment [2] it was 60 µM.
